Paper PMC6954420

Target: HP1α (mouse) (UniProt Q61686)
Experiment: BLI
Conditions: K+, BLI: 100 mM KCl, 50 mM NaCl, 20 mM Na phosphate, pH 8 (G4) or pH 7 (i-motif, dsDNA), room temp, 500 nM oligo or titration, EMSA: 50 mM Tris-HCl pH 7.5, 100 mM …

Sequence of HP1α (mouse) (Q61686 whole entry): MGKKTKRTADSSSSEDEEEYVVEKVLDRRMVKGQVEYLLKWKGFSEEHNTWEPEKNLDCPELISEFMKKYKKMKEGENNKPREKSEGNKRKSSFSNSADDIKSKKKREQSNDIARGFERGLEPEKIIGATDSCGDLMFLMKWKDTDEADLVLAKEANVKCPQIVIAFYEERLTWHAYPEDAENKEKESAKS

| Substance | Kd [nM] | Kd (Fig S2 gives error 0.4) [nM] |
| --- | --- | --- |
| TERRA22 | 940 |  |
| TERRA45 |  | 74.4 |
| TERRA96 | 2.5 |  |
